{"source": "paper PMC2779590", "about": "(2009)", "binders": {"B1": {"name": "CagA (protein)", "chain": "MTNETIDQTRTPDQTQSQTAFDPQQFINNLQVAFIKVDNVVASFDPDQKPIVDKNDRDNRQAFDGISQLREEYSNKAIKNPTKKNQYFSDFIDKSNDLINKDNLIDVESSTKSFQKFGDQRYQIFTSWVSHQKDPSKINTRSIRNFMENIIQPPIPDDKEKAEFLKSAKQSFAGIIIGNQIRTDQKFMGVFDESLKERQEAEKNGGPTGGDWLDIFLSFIFNKKQSSDVKEAINQEPVPHVQPDIATTTTDIQGLPPEARDLLDERGNFSKFTLGDMEMLDVEGVADIDPNYKFNQLLIHNNALSSVLMGSHNGIEPEKVSLLYAGNGGFGDKHDWNATVGYKDQQGNNVATLINVHMKNGSGLVIAGGEKGINNPSFYLYKEDQLTGSQRALSQEEIRNKVDFMEFLAQNNTKLDNLSEKEKEKFQNEIEDFQKDSKAYLDALGNDRIAFVSKKDTKHSALITEFNNGDLSYTLKDYGKKADKALDREKNVTLQGSLKHDGVMFVDYSNFKYTNASKNPNKGVGATNGVSHLEAGFNKVAVFNLPDLNNLAITSFVRRNLENKLTAKGLSLQEANKLIKDFLSSNKELAGKALNFNKAVAEAKSTGNYDEVKKAQKDLEKSLRKREHLEKEVEKKLESKSGNKNKMEAKAQANSQKDEIFALINKEANRDARAIAYTQNLKGIKRELSDKLEKISKDLKDFSKSFDEFKNGKNKDFSKAEETLKALKGSVKDLGINPEWISKVENLNAALNEFKNGKNKDFSKVTQAKSDLENSVKDVIINQKVTDKVDNLNQAVSVAKAMGDFSRVEQVLADLKNFSKEQLAQQAQKNEDFNTGKNSELYQSVKNSVNKTLVGNGLSGIEATALAKNFSDIKKELNEKFKNFNNNNNGLKNSTEPIYAKVNKKKTGQVASPEEPIYTQVAKKVNAKIDRLNQIASGLGGVGQAAGFPLKRHDKVDDLSKVGLSASPEPIYATIDDLGGPFPLKRHDKVDDLSKVGRSRNQELAQKIDNLNQAVSEAKAGFFGNLEQTIDKLKDSTKKNVMNLYVESAKKVPASLSAKLDNYAINSHTRINSNIQNGAINEKATGMLTQKNPEWLKLVNDKIVAHNVGSVSLSEYDKIGFNQKNMKDYSDSFKFSTKLNNAVKDIKSGFTHFLANAFSTGYYCLARENAEHGIKNVNTKGGFQKS"}}, "biological_target": "α5β1 integrin (Homo sapiens, UniProt P08648)", "sequence (P08648 42-1049, chain 1 of 2)": "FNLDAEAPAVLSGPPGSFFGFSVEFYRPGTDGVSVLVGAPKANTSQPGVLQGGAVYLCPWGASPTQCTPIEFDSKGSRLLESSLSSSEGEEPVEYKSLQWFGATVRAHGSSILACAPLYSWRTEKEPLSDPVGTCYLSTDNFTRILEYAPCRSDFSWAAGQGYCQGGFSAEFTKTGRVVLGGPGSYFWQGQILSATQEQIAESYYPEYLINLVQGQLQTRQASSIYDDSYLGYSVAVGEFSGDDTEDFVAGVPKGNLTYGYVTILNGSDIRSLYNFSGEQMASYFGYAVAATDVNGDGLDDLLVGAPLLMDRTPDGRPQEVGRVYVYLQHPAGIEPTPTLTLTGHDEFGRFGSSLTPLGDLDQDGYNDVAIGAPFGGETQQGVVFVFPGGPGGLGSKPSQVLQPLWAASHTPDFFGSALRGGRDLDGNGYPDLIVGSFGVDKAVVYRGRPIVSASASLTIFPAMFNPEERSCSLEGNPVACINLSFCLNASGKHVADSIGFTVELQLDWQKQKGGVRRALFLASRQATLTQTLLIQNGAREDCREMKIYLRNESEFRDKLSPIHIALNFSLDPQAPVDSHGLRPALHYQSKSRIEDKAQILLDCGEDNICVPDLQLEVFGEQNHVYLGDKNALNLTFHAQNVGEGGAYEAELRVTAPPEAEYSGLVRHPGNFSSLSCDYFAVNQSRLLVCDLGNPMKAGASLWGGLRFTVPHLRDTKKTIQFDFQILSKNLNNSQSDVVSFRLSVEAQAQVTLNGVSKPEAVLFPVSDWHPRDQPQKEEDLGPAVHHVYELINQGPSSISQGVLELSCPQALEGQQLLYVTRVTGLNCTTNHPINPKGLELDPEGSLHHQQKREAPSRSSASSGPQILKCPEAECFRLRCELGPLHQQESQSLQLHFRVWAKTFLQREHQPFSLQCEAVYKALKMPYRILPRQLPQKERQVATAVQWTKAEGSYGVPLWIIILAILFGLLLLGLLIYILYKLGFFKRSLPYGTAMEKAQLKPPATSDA", "sequence (chain, as listed by the source, chain 2 of 2)": "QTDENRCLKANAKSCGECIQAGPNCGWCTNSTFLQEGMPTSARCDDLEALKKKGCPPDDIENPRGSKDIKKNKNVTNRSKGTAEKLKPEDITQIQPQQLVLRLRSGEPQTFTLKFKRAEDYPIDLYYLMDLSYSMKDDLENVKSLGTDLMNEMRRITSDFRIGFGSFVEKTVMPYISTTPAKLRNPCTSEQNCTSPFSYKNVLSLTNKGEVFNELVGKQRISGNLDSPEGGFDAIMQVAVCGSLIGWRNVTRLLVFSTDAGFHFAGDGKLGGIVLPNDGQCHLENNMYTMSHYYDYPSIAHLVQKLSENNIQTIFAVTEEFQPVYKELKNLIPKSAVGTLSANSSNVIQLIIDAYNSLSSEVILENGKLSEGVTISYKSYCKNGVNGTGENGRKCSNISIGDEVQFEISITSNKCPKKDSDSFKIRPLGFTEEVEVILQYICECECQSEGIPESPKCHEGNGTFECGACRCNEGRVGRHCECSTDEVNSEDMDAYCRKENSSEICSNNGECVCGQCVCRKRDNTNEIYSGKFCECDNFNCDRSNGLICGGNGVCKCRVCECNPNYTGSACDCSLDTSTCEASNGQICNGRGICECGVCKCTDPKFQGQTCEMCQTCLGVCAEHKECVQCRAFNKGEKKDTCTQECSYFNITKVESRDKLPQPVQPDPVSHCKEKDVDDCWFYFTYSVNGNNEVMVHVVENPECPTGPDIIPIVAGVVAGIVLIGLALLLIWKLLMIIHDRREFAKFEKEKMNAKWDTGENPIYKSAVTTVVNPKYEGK", "assay": "SPR", "data": [{"binder": "B1", "values": [{"measurement": "Kd", "value": 0.15, "unit": "nM"}]}]}
